From article PMC5524322, “Species A rotavirus NSP3 acquires its translation inhibitory function prior to stable dimer formation” (PLoS ONE, 2017) come the findings set out here.

B1: wild type NSP3 (non-structural protein 3) of simian species A rotavirus strain RRV [simian rotavirus A strain RRV] / itself (parent complex)
chain: MESTQQMASSIINSSFEAAVVAATSTLELMGIQYDYNEVYTRVKSKFDLVMDDSGVKNNLIGKAITIDQALNGKFSSAIRNRNWMTDSRTVAKLDEDVNKLRIMLSSKGIDQKMRVLNACFSVKRIPGKSSSIVKCTRLMKDKLERGEVEVDDSFVEEKMEVDTIDWKSRYEQLEKRFESLKHRVNEKYNHWVLKARKVNENMNSLQNVISQQQAHINELQMYNNKLERDLQSKIGSVVSSIEWYLRSMELSDDVKSDIEQQLNSIDQLNPVNAIDDFESILRNLISDYDRLFIMFKGLLQQCNYTYTYE

Variants of B1 are the subject of this assay. The assay is described as follows: non-dissociating Western blot (WB-ND) densitometry; parent: 1; read off a plot.
For the variant chain 1 Y189A, the ratio to parent is roughly 1.8.
chain 1 R184E, chain 1 K188E: the ratio to parent is roughly 0.13.
Turning to chain 1 R170E, the ratio to parent was roughly 0.17.
Take chain 1 K168E: the ratio to parent was roughly 0.32.
